41 sequences from the nanobody polyreactivity screen of Harvey et al. (2022) can be followed below.

The data set is described as follows: yeast display, Sf9 membrane polyspecificity reagent, FACS + sequencing; frameworks hold sequencing errors. In a few lines:
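Using colony PCR, genes from sorted yeast display clones were amplified, then sequenced on MiSeq at 2 × 250 and filtered by CDR length. The clones had been stained with 10% biotinylated, detergent-solubilized Sf9 membrane reagent for 1 hour at 4 °C and sorted by FACS into low and high (top ~1%) gates on anti-HA and streptavidin fluorescence. Polyreactivity labels come from the gate of origin.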
For the sequence “QVQLVESGGGLVQAGGSLRLSCAASRYIFDPNAMGWYRQAPGKERELVAAISGSGTSTYYADSVKGRFTISRDNAKNTVYLQMNSLKPEDTAVYYCAAAHDAGPVRYYYWGQGTQVSVSS”, the “polyreactivity (PSR sort gate)” value is recorded as “low polyreactivity”.
Consider “QVQLVESGGGLVQAGGSLRLSCAASGSTIGPYARGWYRQAPGKERELVAAIRYSSVRTYYADSVKGRFTISRDNAKNTVYLQMKSLKPEDTAVYYCNAVFWSYTEWGRSDYWGQGTEVTVSS”, for which the “polyreactivity (PSR sort gate)” value was “low polyreactivity”.
Regarding “QVQLVESGGGLVQAGGSLRLSCADSGSTFWFYAMGWYRQAPGKERELVAVISNSGSTYYADSVKGRYTISRDNAKNTVSLQMNSLKPEDTAVYYCNKDGGGDSYWYVYWGQGTQVTVSS”, the “polyreactivity (PSR sort gate)” value is on record as “low polyreactivity”.
For “QVQLVESGGGLVQAGGSLRLSCAASGFIFDSYAMGWYRQAPGKERELVAAISYSAGSTSYADSVKGRFTISRDNAKNTVYLQMNSLKPEDTAVYYCNARYYPLYSNSYYSWGQGTQVTVSS”, the “polyreactivity (PSR sort gate)” value is reported as “low polyreactivity”.
For “QVQLQESGGGLVQAGGSMRLSCAPRGSIYELRPMGWNRQAPGKESELVAGISTGGSTNYADCVIGRFTISRDNAKYSVYLQMNSLKPEDSAVYYCAAASYGEGTYDYWGQGTQVTVRS”, the “polyreactivity (PSR sort gate)” value is given as “high polyreactivity”.
The result for “QVQLVESGGGLVQAGGSLRLSCAASGRIFGRYAMGWYRPAPGKEREFVAAISKRGGGTYYADSVKGRFTISRDNAKNTVYLQMNSLKPEDTAVYYCAVDNSPGFDDYDYWGQGTQVTVSS” reads “high polyreactivity”; that for “QVQLVETAGGLVKAGCSLRLSCAASGRIFYIYAMAWYRQSPGKESELLAAISTGGGGTYYADSVKGRFTISRDNAKNTVYLQMNSLKPEDTAVYYCAATSPLSLDEDYWGQGTQVTVSS”, “high polyreactivity”; that for “QVQLVESAGGFVQAGGSLRLSCAASGRIYQQNGLRWYRQAPGKERELVAGINSGVGTNYADSVKGRFTISRDNAKNTVYLQMNSLKPEDTAVFYCAKSQPSYSGDRDYWGQGTQVTVSS”, “low polyreactivity”.
In the case of “QVQLVESGGGLVQAGGSLRLSCAASGFIFGRYAMGWYRQAPGKERELVAGISSRGGRTYYADSVKGRFTISRDTAKNPVFLQINSLKPEDTAVYYCGAAGLTDYVRYDYWGQGTQVTVSS”, the “polyreactivity (PSR sort gate)” value was “high polyreactivity”.
Turning to “QVQLVESGGGLVQAGGSLRLSCAASGSTIFSYAMGWYRQSPGKERELVAAITYRSSRTYYADSVKGRFTISRDNAKNTVYLQMNSLKPEDTAVYYCARGGTAYRYHMDYWGQGTQVTVSS”, the “polyreactivity (PSR sort gate)” value is recorded as “high polyreactivity”.
Then “EVQLVESGGGLVQPGGSLRLSCAASGYIYSRYRMGWYRQAPGKGREFVAAISGGSSTNYADSVKGRFTISRDNSKYTVYLQMNSLRADDTALYYCAAYKIDSDPRVYWGQGTQVTVSS”, with “low polyreactivity”; and “QVQLVESGRGLVQAGGSLRLSCAASGSTFHGYPMGWYRQEPGKERELVAAITSGDSTNYADSVKGRYTISRDNAKNTVYLQMNSLKPEDTAVYYCAALQADRDRYPEFDLMDYWGQGTQVTVSS”, with “low polyreactivity”.
“QVQIEESGGGLVQAGGSLRLICAASGRIFLPYVMGWYRQAPGKERELVATITFGRSTTYADSVKGRFTISRDNAKNTVYLQMNCLKPEDTAFYYCNALSALAVEDGYWGHGTQVTVSS”: the “polyreactivity (PSR sort gate)” value is “low polyreactivity”.
With “QVQLVESGGGLVQAGGSLRLSCAASGRTFLPNAMGWYRQAPGKERELVAVITSGGSTNYADSVKGRFTISRDNAKNTVYLQMNSLKPEDTAVYYCASRRWSSSQGHWGKSAGYGYWGQGTQVTVSS”, the “polyreactivity (PSR sort gate)” value is recorded as “low polyreactivity”.
For “QVQLVESGGCLVQAGGSLRLSCAASGRTFYPYAMGWYRQAPGQDRELVAAIRSSGGTTYYADSVKGRFTISRDNAKNTVYLQMNSLKREDTAVYYCAAFVDRQGGYYWGQGTQVTVSS”, the “polyreactivity (PSR sort gate)” value is given as “high polyreactivity”.
As for “QVQLVESGGGLVQAGGSLRLSCAASGFIFIKYAMGWYRQAPGKERELVAAISSSGGSTYYADSVKGRFTISRDNAKNTVYLQMNSLKPEDTAVYYCAARTYRGLAYDYWGQGTQVTVSS”, the “polyreactivity (PSR sort gate)” value is on record as “high polyreactivity”.
The result for “QVQLVESGGGLVQAGGSLRLSCAASGSIFDQYTMGWYRQAPGKARELVAAIRFSGGSTSYADSVKGRFTISRDNAKNTVYLQMISLKPEDTAVYYCNVDAITGGDWEDFDYWGQGTQVTVSS” reads “low polyreactivity”.
On to “QVQLVESGGGLVQAGGSLRLSCAASGIIFSAYAMGCYRQAPGKESELVAAISSTGGSTYYADSVKGRFTISRDNAKNTVYLQMNSLKPEDTADYYCATAFTPSKLSRMGYWGQGTQVTVSS”, for which the “polyreactivity (PSR sort gate)” value is “high polyreactivity”.
As for “QVQLVESGGGLVQAGGSLRLSCAASGFTFSRNTMGWYSQAPGKERELVARISASGGSTYYADSVKGRITISRDNAKNTVYLQMNSLKPEATAVYYCAAVYRRYGGSRYDYWGQGTQVTVSS”, the “polyreactivity (PSR sort gate)” value was “high polyreactivity”.
The result for “QDHLVESGGGLVQAGGSLRLSCAPSGSIFSYNSMGWYRQAPGKERELVAGISSDGSTNYADSVKGRFSISRDNAKNTVYLQMNSLKPEDTAVYYCAADEIVWQADLWGYGIYDYWGHGTQVTVSS” reads “high polyreactivity”; that for “QVHLVESGVGLFQAGGSLRLSCAASGIIFRYYTMEWYIQAPGKEREVVAVITRGCSTYYADSVMGRFTISRDNAKYSVYLQMNSLKPVDTAVYFCAALRYKLPLGYWGQGTQVTVSS”, “high polyreactivity”.
The result for “QVQLVESVGRLVQAGGSLRLSCAASGFIFIFYTMGWYRHAPGKERELVASITSSGGSTYYADSVKGRFTISRDNAKNTVYLQMNSLNPEDTAVYYCAAKKYRSPRGYWGLGTQVTVSS” reads “high polyreactivity”; that for “QFQLVESGGGLVQAGGSLRLSCAASGSTFRIYTMGWYRQAPGKHRELVAGISSSGNTNYADSVKGRFTISRDNAKNTVYLQMYSLKPEDTAVYYCAAVQPAWGNGYWGQGTQVTVSS”, “high polyreactivity”.
Regarding “QVQLVESAAGLVQAGGSLRLSCDASGSIFYSYAMGWYRQAPGKERELVAAITDSGDSTYYADCVKGRFTISRDNAKNTVYLQMNSLKPEDTAVYYCAAGFYPYYYWGQGTQVTVSS”, the “polyreactivity (PSR sort gate)” value was “low polyreactivity”.
Consider “QVQLVESGGGLVQAGGSLRLSCAASGNTFSWYAMGWYRQAPWKERELVAVITSGGSTNYADSVKGRFTISRDNAKNTVYLQMNSLKTEDTAVYYFAADSYGGSKYDYWGQGTQVTVSS”, for which the “polyreactivity (PSR sort gate)” value is “low polyreactivity”.
Then “QVQLVESGGGLVQAGGSLRLSCAASGRTLYTNAMGWYRQPPGKEREFVASISGSGGSTYYADSVKGRFTISRDNAKNTVDLQMNRLKQEDTAVYYCAADPAQTVEFGKYDYWGQGTQVTVSS”, with “low polyreactivity”.
Then “QVQLVESGGGLVQAGGSLRLSCAASGSIFYGYAMGWYRQAPGKERELVAAISFSGGSTHYADSVKGRFTISRDNAKNTVYLQMNSLKPEDTAVYYCATDSGTPGDDEYWGQGTQVTVSS”, with “low polyreactivity”; and “QVQLVESGGGLVQAGGSLRLSCAASGFIFHGYAMGWYRQAPGKERELVAAISGTGGSTYYADSVKGRFTISRDNAKNTVYLQMNSLKPEDTAVYYYKAERSGNGYWGQGTQVTVSS”, with “high polyreactivity”.
As to “QVQLVDSGGGLVQAGGSLRLSCAASGSIFSSYVRGWYRQAPGKERELVAAITSRGGSTYYADSVKGRFTISRDNAKNTVYLQMNSLKPEDTAVYYCAKGGTLGGYWGQGTQVTVSS”, the “polyreactivity (PSR sort gate)” value is on record as “high polyreactivity”.
As for “QVHLVESGGCLVQAGGTLRLSCAATGSIFYNYDMRWYRQAPGKEREFVAAITWSGTSTYYADSVKGRFTISRDNAKNTVYLQMNSLKPEDSAVYYCNALVRRRPGYIRYDYWGQGTQVTVSS”, the “polyreactivity (PSR sort gate)” value is “low polyreactivity”.
Then “QVQLVESGGGLVQAGGSLRLSCAASGRIYRYYAMGWYRQAPGKERELVAAITRSGGTTYYADSVKGRFTISRDNAKYTVYLQMNSLKPEDTAVYYCNAGVGQKYDYWGQVTQVTVSS”, with “high polyreactivity”; and “QVQLVDSGGGLVQAGGRLRLSCAASGRTFYRNAMGWDSQAPGKERELVAAITSGGSTYYADSVKGRFTISRDTAKNTGYLQMNSLKPEDTAVYYCAALRHALRYDYWGQGTQVTVSS”, with “low polyreactivity”.
In the case of “QVQLVESGGGLVQAGGSLRLRCAASGLTFVYYAMGWYRQAPVKERELVAAITSGGSTYYADSVKGRFTISRDNAKNTVYLQMNSLKPEDTAVYYCAATYPGFYFLLDEYWGQGTQVTVSS”, the “polyreactivity (PSR sort gate)” value is “high polyreactivity”.
As to “QVQLVESGGGLVQAGGSLRLSCAASGSIFKKYAMGWYRQAPGKERELVAAISKSGGSTYYADSVKGRFTISRDNAKNTVYLQMNSLKPEDTAVYYCAAAAGGSAYWDYDYWGQGTQVTVSS”, the “polyreactivity (PSR sort gate)” value was “low polyreactivity”.
For the sequence “QVQLVESGGGLVQAGGSLRLSCAASGRNFGYYTMGWYRQAPGKERELVARINYIGSSTYYADSVKGRFTISRDNAKNTVFLLMNSLKPEDTAVYYCAAETYYFGYGYWGQGTQVTVSS”, the “polyreactivity (PSR sort gate)” value is listed as “high polyreactivity”.
“QVQLVESGGGLVQAGGSLRLSCAASGLIFFYYTMGWYRQAPGKERELVAAISQSGGRTYYADSVKGRFTISRDNAKNTVYLQMNSLKPEDTAVYYCAAAVRYRGDEFDYWGQGTQVTVSS”: the “polyreactivity (PSR sort gate)” value is “low polyreactivity”.
As for “QVQLEESGGGLDQAGGSLRLSCAASGRIFFYNAMGWYRQAPGKERELVAGISRSGTSTYYADSVKGRFTNSRDNAKNTVFLQMNSLKPEDTAVYYCAAAAWSVILWREMDYWGQGTQVTVSS”, the “polyreactivity (PSR sort gate)” value is recorded as “low polyreactivity”.
The result for “QVQLVESGGGLVQAGGSLRLSCAASGRTFPGYAMGWYRQAPGKERELVAVISWSGGRTNYADSVKGRFTISRDNAKNTVYLQMNSLKPEDTAVYYCAARYHGHSNDYWGQGTQVTVSS” reads “low polyreactivity”; that for “QVQLQESRGGQVQEGGSLRLSCAASGNISPPADMGWYRQAPGKERELVASIGTGGTTNYADSVKGRFTISRDNAKNTVYLQMKSLKPDDTAVYYCAAVRFEYNPYDYWGQGTQVTVSS”, “low polyreactivity”.
“QVQLVESGGGLVQAGGSLRLSCAASGFIFGQYAMGWYRQAPGKERELVAAISRSGGSTYYADSVKGRFTISRDNAKNTVYLQMNSLKPEDTAVYYCNRRARGDSYRLDYWGQGTQVTVSS”: the “polyreactivity (PSR sort gate)” value is recorded as “high polyreactivity”.
Regarding “QVQLVESGGGLVQAGGSLRLSCAASGFIFSRYGMGWYRQAPGKERELVAAISRSGGSTYYADSVKGRFTISRDNAKNTVYLQMNSLKPEDTAVYYCATAYSWRNADRFAYSYDYWGQGTQVTVSS”, the “polyreactivity (PSR sort gate)” value is recorded as “low polyreactivity”.
